This experiment addresses T1, SARS-CoV-2 Omicron BA.1突变株 S蛋白 (Sino Biological，货号:40589-V08B33) (SARS-CoV-2 Omicron BA.1突变株).
T1 construct: also called Omicron BA.1 S蛋白
The experiment is described as follows: ELISA, S protein coated, antibody titrated from 10 μg/mL. Background: In an ELISA, binding on a coated surface is turned into a signal by an enzyme label.

B1: 抗新型冠状病毒SARS-CoV-2的广谱抗体(VSM12-37) (antibody, V domains shown)
VH: EVQLVESGGGLVQPGGSLRLSCAVSGFTVSSNYMSWVRQAPGKGLEWVSLIYSGGSTYYADSVKGRFTVSRDRSKNTLYLQMNSLRAEDTALYYCARDNPRVGSNYWGQGTLVTVSS
VL: DIQMTQSPSSLSASVGDRVTITCQASQDINNYLNWYQQKPGKAPKLLIYDASNLEAGVPSRFSGSGSGTDFTFTISSLQPEDIATYYCQQCDNVPLTFGGGTKVEIKR
notes: also called VSM12-37抗体
In general, EC50 refers to the concentration giving half of the maximal effect. Low values mean a more potent agent, high ones a less potent agent. Take B1: the EC50 is above 5 µg/mL.
